We go through one molecule from PMC10296906, “GPCR Binding and JNK3 Activation by Arrestin-3 Have Different Structural Requirements” (Cells, 2023).

In the assay the target is T1, LgBiT-tagged human M2 muscarinic acetylcholine receptor (human, UniProt P08172 1-466).
T1 construct: M2 muscarinic acetylcholine receptor, human, Gi-coupled; stimulated with 10 µM carbachol; also called M2R; source: HEK293 arrestin-2/3 knockout cells, transfected (pcDNA3), in live cells; not shown: LgBiT (17.6 kDa, with the 4-amino acid linker APAG), C-terminal, kept
T1 sequence (looked up): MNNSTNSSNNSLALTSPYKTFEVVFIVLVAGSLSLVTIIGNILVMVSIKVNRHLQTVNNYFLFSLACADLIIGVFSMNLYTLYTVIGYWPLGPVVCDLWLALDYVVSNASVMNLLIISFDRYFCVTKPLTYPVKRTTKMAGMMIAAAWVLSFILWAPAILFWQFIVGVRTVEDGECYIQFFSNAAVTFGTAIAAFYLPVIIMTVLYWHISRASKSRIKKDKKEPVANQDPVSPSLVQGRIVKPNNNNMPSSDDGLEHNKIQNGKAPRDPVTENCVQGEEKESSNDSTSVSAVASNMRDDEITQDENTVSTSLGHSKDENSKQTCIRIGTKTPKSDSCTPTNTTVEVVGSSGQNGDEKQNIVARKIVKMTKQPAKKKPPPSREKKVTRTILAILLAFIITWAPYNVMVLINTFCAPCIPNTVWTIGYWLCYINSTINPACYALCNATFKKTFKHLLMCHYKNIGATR
The assay can be described thus: split reporter (BiFC, NanoBiT); NanoBiT complementation in live HEK293 arrestin-2/3 KO cells: SmBiT-arrestin-3 and receptor-LgBiT co-expressed; luminescence read 20 min with nanoGlo substrate, then agonist added (10 µM isoproterenol for β2AR, 10 µM carbachol for M2R) and read 40 min; signal normalized to the basal signal without agonist. Particulars: partners not purified.

B1: SmBiT-tagged WT arrestin-3 (natural protein, UniProt P32120-2 1-409, looked up)
chain: MGEKPGTRVFKKSSPNCKLTVYLGKRDFVDHLDKVDPVDGVVLVDPDYLKDRKVFVTLTCAFRYGREDLDVLGLSFRKDLFIANYQAFPPTPNPPRPPTRLQERLLRKLGQHAHPFFFTIPQNLPCSVTLQPGPEDTGKACGVDFEIRAFCAKSLEEKSHKRNSVRLVIRKVQFAPEKPGPQPSAETTRHFLMSDRSLHLEASLDKELYYHGEPLNVNVHVTNNSTKTVKKIKVSVRQYADICLFSTAQYKCPVAQVEQDDQVSPSSTFCKVYTITPLLSNNREKRGLALDGKLKHEDTNLASSTIVKEGANKEVLGILVSYRVKVKLVVSRGGDVSVELPFVLMHPKPHDHIALPRPQSAAPETDAPVDTNLIEFETNYATDDDIVFEDFARLRLKGLKDEDYDDQFC
notes: also called arr3; WT arr3; source: HEK293 arrestin-2/3 knockout cells, transfected (pcDNA3), in live cells
In the case of B1, the “agonist-induced luminescence, fold over basal” value is roughly 8 fold.
